{"source": "patent US20170283484A1", "about": "(UNITED KINGDOM RESEARCH AND INNOVATION, published 2017)", "binders": {"B1": {"name": "B2.1A scFv (scFv)", "scFv": "DANSQVQLQESGTELVKPGASVKLSCKASGYTFTNYWMHWVKQRPGQGLEWIGEINPSDGHTNYNEKFKSKATLTVDKSSSTAYMQLSSLTSEDSAVYYCARPWAFGNYGAWFAYWGQGTLVTVSAGGSGGSGGGGSGGGGSGGGASDIVMTQSPKFMSTSVGDRVSITCKASQNVRTAVAWYQQKPGQSPKALIYLASSRHTGVPDRFTGSGSGTDFTLTISNVQSEDLADYFCLQHWNYPYTFGGGTKLEIKSRHHHHHH", "notes": "also called single-chain variable fragment (scFv) of B2.1A; Ab2"}, "B2": {"name": "B2.1A antibody (antibody, V domains shown)", "VH": "QVQLQESGTELVKPGASVKLSCKASGYTFTNYWMHWVKQRPGQGLEWIGEINPSDGHTNYNEKFKSKATLTVDKSSSTAYMQLSSLTSEDSAVYYCARPWAFGNYGAWFAYWGQGTLVTVSA", "VL": "DIVMTQSPKFMSTSVGDRVSITCKASQNVRTAVAWYQQKPGQSPKALIYLASSRHTGVPDRFTGSGSGTDFTLTISNVQSEDLADYFCLQHWNYPYTFGGGTKLEIKR", "notes": "also called anti-Id B2.1A; Ab2"}, "B3": {"name": "AP33 mutant YH50A (antibody, V domains shown)", "VH": "EVQLQESGPSLVKPSQTLSLTCSVTGDSITSGYWNWIRKFPGNKLEYMGAISYSGSTYYNLSLRSRISITRDTSKNQYYLQLNSVTTEDTATYYCALITTTTYAMDYWGQGTSVTVS", "VL": "NIVLTQSPVSLAVSLGQRATISCRASESVDGYGNSFLHWFQQKPGQPPKLLIYLASNLNSGVPARFSGSGSRTDFTLTIDPVEADDAATYYCQQNNVDPWTFGGGTKLEIK"}, "B4": {"name": "AP33 mutant YH100A (antibody, V domains shown)", "VH": "B3 VH with A50Y, Y103A", "VL": "B3 VL"}}, "key": {"[1]": {"molecular_target": "AP33 antibody (wild type mouse monoclonal)"}, "[2]": {"molecular_target": "T1, AP33 antibody (wild type mouse monoclonal)", "T1 construct": "also called WT AP33; Ab1", "test": "SPR, B2.1A scFv amine-coupled to CM4 chip, AP33 injected, single-cycle kinetics"}, "[3]": {"molecular_target": "T1, AP33 antibody (wild type mouse …)", "test": "SPR, B2.1A scFv amine-coupled to CM5 chip, AP33 injected, single-cycle kinetics"}, "[4]": {"molecular_target": "T1, AP33 antibody (wild type mouse …)", "test": "Ab2 binding screen"}, "[5]": {"molecular_target": "T2, AP33 light-chain alone (Mus musculus (Mouse), UniProt P01661 21-131)", "T2 construct": "also called AP33 LC; LC", "test": "Ab2 binding screen"}, "[6]": {"molecular_target": "HCV E2 envelope glycoprotein (hepatitis C virus, UniProt P27958 384-746)", "sequence (P27958 384-746 limits assumed)": "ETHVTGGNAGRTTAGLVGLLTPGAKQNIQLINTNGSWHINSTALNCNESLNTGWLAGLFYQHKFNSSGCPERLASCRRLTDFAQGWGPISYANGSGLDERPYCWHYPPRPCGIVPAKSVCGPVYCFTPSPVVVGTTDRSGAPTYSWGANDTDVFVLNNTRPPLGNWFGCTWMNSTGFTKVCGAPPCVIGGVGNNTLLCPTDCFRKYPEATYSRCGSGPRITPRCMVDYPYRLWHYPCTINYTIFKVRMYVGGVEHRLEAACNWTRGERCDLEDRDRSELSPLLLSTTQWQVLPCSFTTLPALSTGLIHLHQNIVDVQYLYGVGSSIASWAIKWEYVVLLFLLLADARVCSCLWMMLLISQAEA", "test": "ELISA of E2 on AP33 alanine mutants"}}, "note": "Substitutions are numbered along the chain they refer to. Where two headings read alike, the source gives them in different places.", "data": [{"binder": "B1", "values": [{"measurement": "Kd", "setting": "[1]", "value": 8, "unit": "nM"}, {"measurement": "koff", "setting": "[1]", "value": 0.00039, "unit": "s⁻¹"}, {"measurement": "kon", "setting": "[1]", "value": 48700, "unit": "M⁻¹ s⁻¹"}, {"measurement": "Kd", "setting": "[2]", "value": 20.7, "unit": "nM"}, {"measurement": "koff", "setting": "[2]", "value": 0.000243, "unit": "s⁻¹"}, {"measurement": "kon", "setting": "[2]", "value": 11800, "unit": "M⁻¹ s⁻¹"}, {"measurement": "Kd", "setting": "[3]", "value": 28.6, "unit": "nM"}, {"measurement": "koff", "setting": "[3]", "value": 0.000321, "unit": "s⁻¹"}, {"measurement": "kon", "setting": "[3]", "value": 11200, "unit": "M⁻¹ s⁻¹"}]}, {"binder": "B2", "values": [{"measurement": "binding result", "setting": "[4]", "value": "binds"}, {"measurement": "binding result", "setting": "[5]", "value": "no binding"}]}, {"binder": "B3", "values": [{"measurement": "reduction of binding relative to WT AP33", "setting": "[6]", "value": 90, "unit": "%"}]}, {"binder": "B4", "values": [{"measurement": "reduction of binding relative to WT AP33", "setting": "[6]", "value": 90, "unit": "%"}]}]}
